Consider two substances from paper PMC8156467, “Disruption of YY1-EZH2 Interaction Using Synthetic Peptides Inhibits Breast Cancer Development” (Cancers, 2021).

The target of assay [1] is enhancer of zeste homolog 2 (EZH2), endogenous (human (endogenous in MDA-MB-231)) (UniProt Q15910).
For assay [2], the target named is Yin Yang 1 (YY1), endogenous (human (endogenous in MDA-MB-231)) (UniProt P25490).
Sequence of Yin Yang 1 (YY1), endogenous (human (endogenous in MDA-MB-231)) (P25490 whole entry): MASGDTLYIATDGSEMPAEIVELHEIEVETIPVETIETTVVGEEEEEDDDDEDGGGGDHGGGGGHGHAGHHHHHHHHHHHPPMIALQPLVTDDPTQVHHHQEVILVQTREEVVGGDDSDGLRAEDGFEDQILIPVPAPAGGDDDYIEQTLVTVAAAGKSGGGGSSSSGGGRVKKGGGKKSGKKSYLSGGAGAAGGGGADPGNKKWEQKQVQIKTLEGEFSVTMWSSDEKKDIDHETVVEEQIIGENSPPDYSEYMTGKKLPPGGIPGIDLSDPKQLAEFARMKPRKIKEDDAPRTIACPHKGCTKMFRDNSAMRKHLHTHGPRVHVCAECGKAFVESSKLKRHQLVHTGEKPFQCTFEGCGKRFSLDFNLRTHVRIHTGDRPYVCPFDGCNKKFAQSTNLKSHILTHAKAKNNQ

Sequence of synthetic FITC-TAT-3×Glycine-OPB peptide (P25490 whole entry): as above
Sequence of enhancer of zeste homolog 2 (EZH2), endogenous (human (endogenous in MDA-MB-231)) (Q15910 whole entry): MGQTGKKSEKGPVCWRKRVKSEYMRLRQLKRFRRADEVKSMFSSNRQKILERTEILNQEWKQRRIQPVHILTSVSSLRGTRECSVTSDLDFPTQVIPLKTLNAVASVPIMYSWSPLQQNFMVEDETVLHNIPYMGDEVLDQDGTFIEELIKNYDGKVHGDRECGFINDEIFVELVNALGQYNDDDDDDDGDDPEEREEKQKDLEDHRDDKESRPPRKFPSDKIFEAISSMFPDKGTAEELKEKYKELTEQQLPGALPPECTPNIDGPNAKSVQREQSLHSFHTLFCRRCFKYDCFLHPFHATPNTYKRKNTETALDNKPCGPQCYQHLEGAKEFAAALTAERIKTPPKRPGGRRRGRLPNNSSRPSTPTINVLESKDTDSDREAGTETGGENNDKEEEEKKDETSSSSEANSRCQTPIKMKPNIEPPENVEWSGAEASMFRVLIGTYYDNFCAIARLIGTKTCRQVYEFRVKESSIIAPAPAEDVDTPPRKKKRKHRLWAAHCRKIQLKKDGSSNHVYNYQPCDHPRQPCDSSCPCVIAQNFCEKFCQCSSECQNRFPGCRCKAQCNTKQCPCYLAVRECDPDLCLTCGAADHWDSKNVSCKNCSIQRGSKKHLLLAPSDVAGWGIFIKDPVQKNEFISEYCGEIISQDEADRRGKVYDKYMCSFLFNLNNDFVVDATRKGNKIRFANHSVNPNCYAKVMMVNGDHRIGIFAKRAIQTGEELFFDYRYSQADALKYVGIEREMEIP

With “synthetic FITC-TAT-3×Glycine-OPB peptide (from UniProt P25490 201-226)”, the IC50 of cell viability (WST-1, 48 h) in MCF-7, MDA-MB-231 and MDA-MB-453 breast cancer cells; the peptide blocks YY1-EZH2 (m1 with m2) in assay [1] amounted to 20 µM.
Regarding “synthetic FITC-TAT-3×Glycine-YPB peptide (from UniProt Q15910-2 493-519)”, the IC50 of cell viability (WST-1, 48 h) in MCF-7, MDA-MB-231 and MDA-MB-453 breast cancer cells; the peptide blocks YY1-EZH2 (m1 with m2) in assay [2] amounted to 20 µM.
